From patent publication US20220332839A1, “USE OF PRG4 TO TREAT CANCER” (Lubris LLC, priority 2019, published 2022)

How the values were obtained:
CD44-IgG1Fc = biological target: T1, CD44-IgG1Fc (Homo sapiens, UniProt P16070); assay: Direct ELISA: binding of coated macromolecules to CD44-IgG1Fc
T1 construct: purchased R & D systems
Procedure: High-binding microtiter plates (Corning, Sigma Aldrich, USA) were coated with rhPRG4 (Mr≅240 KDa), high molecular weight HA (HMW HA; Mr≅1,500 KDa) (R & D System, USA), medium molecular weight HA (MMW HA; Mr≅′300KDa) (R & D System) and vitronectin KDa) (Sigma Aldrich) at 400 μg/mL in PBS buffer (100 μL per well) overnight at 4° C. rhPRG4 is a full-length product produced by CHO-M cells (Lubris, Framingham, Mass., USA). Following washing with PBS+0.1% Tween 20, wells were blocked with 2% bovine serum albumin (BSA; 300 μL per well) for at least 2 hours at room temperature. CD44-IgG1Fc (R & D systems) or IgG1Fc (R & D systems), each at 1 μg/mL (100 μl per well), were added to the plate and incubated for 60 min at room temperature. Following washing with PBS+0.1% tween 20, anti-IgG1Fc-HRP (Sigma Aldrich) was added at 1:10,000 dilution (100 μL per well) and incubated for 60 min at room temp. Following washing with PBS+0.1% tween 20, the assay was developed using 1-step Turbo TMB ELISA reagent (ThermoScientific, USA) and absorbance was measured at 450 nm. The data represents an average of 4 independent assays, each with triplicate wells per group.
The concentration-dependent binding of rhPRG4, HMW HA and MMW HA to CD44 was performed by coating microtiter plates with 400, 200, 100, 20, 4, 2 and 0.1 μg/mL of the macromolecules. The assay was performed as described above. The absorbance values in the IgG1Fc wells were subtracted from the absorbance values in the CD44 IgG1Fc wells and the corrected CD44 IgG1Fc absorbance values were normalized to those of the 400 μg/mL rhPRG4 group and data was expressed as percentage binding to CD44. The concentration-dependent binding of rhPRG4, HMW HA and MMW HA to recombinant CD44 is depicted in FIG. 1B. […] The data represents an average of 4 independent assays, each with triplicate wells per group.
rhPRG4 was digested using sialidase A (Prozyme, USA), O-glycosidase (New England Biolabs, USA) or a combination of sialidase A and O-glycosidase for 16 hours at 37° C. In the sialidase A digestion, 12 μL of the enzyme (1U/200 μL) was added to rhPRG4 in a total reaction volume of 180 μL and a rhPRG4 final concentration of 300 μg/mL. In the O-glycosidase digestion, 4.8 μL of the enzyme (40million units/mL) was added to rhPRG4 in a total reaction volume of 180 μL and a rhPRG4 final concentration of 300 μg/mL under non-denaturing conditions. In the sialidase-A and O-glycosidase digestion, the enzymes were used in volumes identical to the ones stated above and incubated with rhPRG4 in a total reaction volume and final rhPRG4 concentration as stated above. The effect of sialidase-A and O-glycosidase digestions on rhPRG4 apparent molecular weight was determined by SDS-PAGE using 4-12% Bis-Tris gel (NuPage, life technologies, USA). A total of 20 μL of rhPRG4 or enzyme-digested rhPRG4 was run under reducing conditions ([…] for 60 min) followed by staining using Gelcode Blue Stain (Thermo Scientific, USA). Binding of enzymatically digested rhPRG4 to CD44 was compared to undigested rhPRG4 using the direct ELISA approach described above and using an rhPRG4 coating concentration of 30 μg/mL. Data represents the average of 4 independent experiments, each with triplicate wells per group.

immobilized CD44-IgG1Fc = biological target: T2, immobilized CD44-IgG1Fc (Homo sapiens, UniProt P16070); assay: Surface plasmon resonance binding of rhPRG4 to CD44 and competition with HMW HA
T2 construct: purchased R & D systems
Procedure: Binding of rhPRG4 to CD44-IgG1Fc was investigated using surface plasmon resonance (Biacore T100, GE Healthcare Lifesciences, NJ, USA). Series S chips were functionalized using the human antibody capture kit (GE Life Sciences) and either CD44-IgG1Fc or IgG1FC was allowed to bind to the surface of the functionalized chips in flow cell 1 (Fc1) and flow cell 2 (Fc2), respectively. rhPRG4 was injected at 30 μL/min for 8 min at concentrations of 300, 250, 200, 150, 100 and 50 μg/mL followed by a 10 min dissociation using 0.1M HEPES, 1.5M NaCl, 30 mM EDTA, and 0.5% P20 (GE Life Sciences). The surface of the chip was regenerated at the end of each cycle with 1 min pulse of 3M MgCl2. Each analyte concentration was injected in duplicate. The resulting curves were double referenced (i.e. Fc2-Fc1, followed by subtraction of the 0 μg/mL curve). The binding kinetics and binding affinity were determined by BiaEvaluation software, using 1:1 binding/conformational change model or by steady-state equilibrium, respectively. To study the competition between rhPRG4 and HMW HA in binding to CD44, rhPRG4 was injected at concentrations ranging between 0 and 300 μg/mL as described above. Following the end of dissociation phase, HMW HA was injected at 50 μg/mL (30 μL per min) for 1 min. […]

[1] = system: non-metastatic triple negative breast cancer; assay: Treatment of a human with triple negative breast cancer, local injection; type: in vivo
Procedure: (§1) A human diagnosed with non-metastatic triple negative breast cancer is administered recombinant human PRG4 (rhPRG4) by local injection to the area of the tumor. Administration is done under local anesthesia. A total amount of 2 mL of rhPRG4 in physiological saline at a concentration of 100 ug/mL is administered via a 14 gauge needle. Several injections are made into the tumor and over its surface in order to disperse the dose throughout the tumor area. The dose is administered once weekly for four weeks.
as §1, with “weeks. During the dosing rhPRG4 schedule, the patient also receives a cocktail of taxane and doxorubicin per standard protocols.” for “weeks.”

With “rhPRG4: full-length recombinant human PRG4 (lubricin) glycoprotein produced by CHO-M cells; residues 25-1404 of SEQ ID NO:1” the “concentration-dependent binding to CD44, affinity” value (CD44-IgG1Fc) was “comparable affinity to HMW HA”, the “percentage CD44 binding between rhPRG4, HMW HA and MMW HA-coated wells” value (CD44-IgG1Fc; 0.1 μg/mL coating) was “no significant differences” and the “percentage recombinant CD44 binding compared to MMW HA coated wells” value (CD44-IgG1Fc; 200 μg/mL coating, p<0.001) was “significantly higher”. The “percentage recombinant CD44 binding compared to HMW HA or MMW HA-coated wells” value (CD44-IgG1Fc; 400, 100, 20, 4 and 2 μg/mL coating, p<0.001) was “significantly higher”, the “450 nm absorbance in the CD44-IgG1Fc group vs the IgG1Fc group” value (CD44-IgG1Fc; wells coated at 400 μg/mL, CD44-IgG1Fc or IgG1Fc at 1 μg/mL) was “significantly higher” and the Kd (immobilized CD44-IgG1Fc; based on a rhPRG4 molecular weight of 240 KDa, read-out: apparent Kd) was roughly 38 nM. For the same substance, the “effect on binding of HMW HA to recombinant CD44” value (immobilized CD44-IgG1Fc; rhPRG4 0-300 μg/mL, then HMW HA 50 μg/mL) was “interfered with binding of HMW HA”, the “tumor size by CT scan after four weeks” value ([1]; 2 mL of 100 ug/mL rhPRG4, local injection, once weekly for four weeks) was “tumor has shrunk in size” and the “tumor size by CT scan after four weeks, with taxane and doxorubicin” value ([1]; 2 mL of 100 ug/mL rhPRG4 locally weekly plus taxane and doxorubicin) was “shrunk in size and at a rate faster”.
